{
  "source": "paper PMC6736635",
  "test_in_all_cases": "fluorescence anisotropy",
  "key": {"[1]": {"molecular_target": "T1, PRC2-AEBP2 (Homo sapiens, UniProt Q15910;Q15022;O75530;Q09028;Q6ZN18 1-746;1-739;1-441;1-425;1-517)"}, "[2]": {"molecular_target": "T1, PRC2-AEBP2", "remark": "listed apart in the source"}, "[3]": {"molecular_target": "PRC2-AEBP2 mt2 (Homo sapiens, UniProt Q15910;Q15022;O75530;Q09028;Q6ZN18 1-746;1-739;1-441;1-425;1-517, H129A;K156A;H158A;G159A;R161A;R306A)"}, "[4]": {"molecular_target": "PRC2-AEBP2 mt4 (Homo sapiens, UniProt Q15910;Q15022;O75530;Q09028;Q6ZN18 1-746;1-739;1-441;1-425;1-517, K656A)"}, "[5]": {"molecular_target": "PRC2-AEBP2 mt1 (Homo sapiens, UniProt Q15910;Q15022;O75530;Q09028;Q6ZN18 1-746;1-739;1-441;1-425;1-517, R27A;R31A;F165A;R355A)"}, "[6]": {"molecular_target": "PRC2-MTF2 (Homo sapiens, UniProt Q15910;Q15022;O75530;Q09028;Q9Y483 1-746;1-739;1-441;1-425;1-593)"}, "[7]": {"molecular_target": "PRC2 core (EZH2-EED-SUZ12-RBBP4) (Homo sapiens, UniProt Q15910;Q15022;O75530;Q09028 1-746;1-739;1-441;1-425)", "sequence (Q15910 whole entry, chain 1 of 4)": "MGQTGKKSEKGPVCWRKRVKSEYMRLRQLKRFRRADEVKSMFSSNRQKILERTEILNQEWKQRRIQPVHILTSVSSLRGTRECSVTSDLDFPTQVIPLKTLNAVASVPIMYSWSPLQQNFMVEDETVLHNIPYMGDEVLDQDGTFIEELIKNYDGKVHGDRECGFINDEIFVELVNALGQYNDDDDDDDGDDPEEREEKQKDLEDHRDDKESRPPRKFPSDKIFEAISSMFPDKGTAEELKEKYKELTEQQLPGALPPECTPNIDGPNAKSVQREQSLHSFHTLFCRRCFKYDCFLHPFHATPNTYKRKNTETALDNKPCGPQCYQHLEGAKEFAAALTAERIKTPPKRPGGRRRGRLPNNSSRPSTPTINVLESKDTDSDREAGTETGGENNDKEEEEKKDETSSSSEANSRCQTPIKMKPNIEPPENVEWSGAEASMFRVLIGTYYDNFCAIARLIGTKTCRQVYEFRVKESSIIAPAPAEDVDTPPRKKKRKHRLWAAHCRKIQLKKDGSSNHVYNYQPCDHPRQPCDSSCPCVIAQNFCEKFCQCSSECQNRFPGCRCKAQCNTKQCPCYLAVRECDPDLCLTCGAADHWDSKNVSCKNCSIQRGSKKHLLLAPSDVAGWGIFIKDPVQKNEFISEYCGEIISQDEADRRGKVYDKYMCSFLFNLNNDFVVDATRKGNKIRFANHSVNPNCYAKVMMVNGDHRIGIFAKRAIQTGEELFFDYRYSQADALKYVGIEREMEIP", "sequence (Q15022 whole entry, chain 2 of 4)": "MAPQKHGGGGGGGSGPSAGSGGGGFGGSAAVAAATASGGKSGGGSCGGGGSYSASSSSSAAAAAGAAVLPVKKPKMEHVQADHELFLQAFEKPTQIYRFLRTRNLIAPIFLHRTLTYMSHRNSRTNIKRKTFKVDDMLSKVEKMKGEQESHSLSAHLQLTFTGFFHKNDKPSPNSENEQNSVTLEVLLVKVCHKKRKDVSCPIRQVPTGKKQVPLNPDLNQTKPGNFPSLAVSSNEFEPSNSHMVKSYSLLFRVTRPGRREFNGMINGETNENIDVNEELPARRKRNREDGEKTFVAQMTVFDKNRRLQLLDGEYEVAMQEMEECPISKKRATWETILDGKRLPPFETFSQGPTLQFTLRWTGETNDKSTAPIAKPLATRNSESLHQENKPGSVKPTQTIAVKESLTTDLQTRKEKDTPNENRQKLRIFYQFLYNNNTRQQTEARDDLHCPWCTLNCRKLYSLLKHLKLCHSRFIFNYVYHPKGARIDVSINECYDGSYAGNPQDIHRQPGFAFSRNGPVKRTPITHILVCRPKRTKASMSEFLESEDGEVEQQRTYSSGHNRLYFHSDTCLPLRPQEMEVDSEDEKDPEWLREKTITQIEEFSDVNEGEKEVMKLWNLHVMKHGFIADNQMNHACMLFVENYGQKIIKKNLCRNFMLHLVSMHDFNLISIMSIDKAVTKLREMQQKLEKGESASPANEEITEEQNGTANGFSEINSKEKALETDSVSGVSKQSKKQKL", "sequence (O75530 whole entry, chain 3 of 4)": "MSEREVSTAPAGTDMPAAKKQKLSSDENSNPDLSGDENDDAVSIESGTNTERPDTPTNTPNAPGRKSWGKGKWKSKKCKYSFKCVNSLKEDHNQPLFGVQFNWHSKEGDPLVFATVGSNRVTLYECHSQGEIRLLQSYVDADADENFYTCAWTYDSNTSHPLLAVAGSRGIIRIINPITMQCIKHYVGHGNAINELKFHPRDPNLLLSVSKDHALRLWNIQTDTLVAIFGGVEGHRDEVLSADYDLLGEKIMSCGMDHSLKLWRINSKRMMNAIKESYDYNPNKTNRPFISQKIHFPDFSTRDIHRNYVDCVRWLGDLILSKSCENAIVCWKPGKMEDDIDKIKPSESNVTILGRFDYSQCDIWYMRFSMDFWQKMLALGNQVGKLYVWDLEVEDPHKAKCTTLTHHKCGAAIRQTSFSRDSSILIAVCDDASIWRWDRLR", "sequence (Q09028 whole entry, chain 4 of 4)": "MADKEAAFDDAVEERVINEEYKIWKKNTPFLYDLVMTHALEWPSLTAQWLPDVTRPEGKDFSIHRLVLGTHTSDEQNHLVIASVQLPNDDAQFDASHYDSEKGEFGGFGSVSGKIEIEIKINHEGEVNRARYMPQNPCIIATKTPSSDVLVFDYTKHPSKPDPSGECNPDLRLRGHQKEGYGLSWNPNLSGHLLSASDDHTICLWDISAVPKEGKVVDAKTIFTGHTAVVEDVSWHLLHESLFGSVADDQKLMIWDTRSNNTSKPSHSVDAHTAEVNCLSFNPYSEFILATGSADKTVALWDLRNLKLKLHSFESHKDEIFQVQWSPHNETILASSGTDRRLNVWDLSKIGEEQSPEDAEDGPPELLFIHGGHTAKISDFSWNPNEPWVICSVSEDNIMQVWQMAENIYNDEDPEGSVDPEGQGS"}, "[8]": {"molecular_target": "PRC2-PHF19 (Homo sapiens, UniProt Q15910;Q15022;O75530;Q09028;Q5T6S3 1-746;1-739;1-441;1-425;1-580)"}, "[9]": {"molecular_target": "PRC2-AEBP2 mt3 (Homo sapiens, UniProt Q15910;Q15022;O75530;Q09028;Q6ZN18 1-746;1-739;1-441;1-425;1-517, R16A;K17A;R18A;K20A)"}, "[10]": {"molecular_target": "PRC2-AEBP2 mt5 (Homo sapiens, UniProt Q15910;Q15022;O75530;Q09028;Q6ZN18 1-746;1-739;1-441;1-425;1-517, Y133A;T144A;F145A;Y153A;Y308A)"}, "[11]": {"molecular_target": "T1, PRC2-AEBP2", "remark": "listed apart in the source"}, "[12]": {"molecular_target": "PRC2-MTF2-EPOP (Homo sapiens, UniProt Q15910;Q15022;O75530;Q09028;Q9Y483;A6NHQ4 1-746;1-739;1-441;1-425;1-593;1-379)"}},
  "note": "Like-named read-outs stand apart in the source and are kept apart here.",
  "data": [
    {"binder": "UUAGGGUUAGGGUUAGGGUUAGGG (structured_RNA)", "note": "[G4 24 RNA]", "values": [
      {"measurement": "Kd", "setting": "[1]", "value": "60.5 ± 2.2", "unit": "nM"},
      {"measurement": "Kd", "setting": "[2]", "value": "19.2 ± 2.7", "unit": "nM"},
      {"measurement": "Kd", "setting": "[3]", "value": "141 ± 8", "unit": "nM"},
      {"measurement": "Kd", "setting": "[4]", "value": "102 ± 4", "unit": "nM"},
      {"measurement": "Kd", "setting": "[5]", "value": "173 ± 7", "unit": "nM"},
      {"measurement": "Kd", "setting": "[6]", "value": "82.4 ± 9.8", "unit": "nM"},
      {"measurement": "Kd", "setting": "[7]", "value": "129 ± 6", "unit": "nM"},
      {"measurement": "Kd", "setting": "[8]", "value": "34 ± 1.8", "unit": "nM"},
      {"measurement": "Kd", "setting": "[9]", "value": "124 ± 7", "unit": "nM"},
      {"measurement": "Kd", "setting": "[10]", "value": "93.7 ± 6.3", "unit": "nM"},
      {"measurement": "Kd", "setting": "[11]", "value": "54.6 ± 3.8", "unit": "nM"},
      {"measurement": "Kd", "setting": "[12]", "value": "40.9 ± 3.9", "unit": "nM"}
    ]}
  ]
}
